Reference: patent US20140213531A1 (POLYPHOR, published 2014)

T1: Elastase from human neutrophils (human, UniProt P08246 30-247, limits assumed)
T1 sequence (looked up): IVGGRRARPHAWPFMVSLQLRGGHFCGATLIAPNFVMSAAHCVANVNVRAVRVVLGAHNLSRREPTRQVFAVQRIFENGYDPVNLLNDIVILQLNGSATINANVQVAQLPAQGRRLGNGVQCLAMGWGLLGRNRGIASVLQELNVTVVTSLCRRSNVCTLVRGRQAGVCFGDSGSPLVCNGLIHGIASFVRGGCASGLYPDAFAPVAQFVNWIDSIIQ

T2: CathepsinG, from human neutrophils (human, UniProt P08311 21-244)
T2 sequence (looked up): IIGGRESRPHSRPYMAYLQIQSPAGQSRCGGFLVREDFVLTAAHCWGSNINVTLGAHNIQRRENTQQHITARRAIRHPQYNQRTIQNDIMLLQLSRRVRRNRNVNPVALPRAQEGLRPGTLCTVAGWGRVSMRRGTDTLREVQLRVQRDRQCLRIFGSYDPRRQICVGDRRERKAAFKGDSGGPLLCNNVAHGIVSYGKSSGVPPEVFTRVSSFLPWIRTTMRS

T3: Chymase, from human skin (human, UniProt P23946 22-247)
T3 sequence (looked up): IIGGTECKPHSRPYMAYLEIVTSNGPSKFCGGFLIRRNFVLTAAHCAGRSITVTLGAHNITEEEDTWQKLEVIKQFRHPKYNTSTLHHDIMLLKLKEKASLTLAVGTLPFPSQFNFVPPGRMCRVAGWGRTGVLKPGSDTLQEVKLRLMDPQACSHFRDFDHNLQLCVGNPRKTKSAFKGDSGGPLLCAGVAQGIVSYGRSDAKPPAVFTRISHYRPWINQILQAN

B1: Example 47 (peptide)
peptide: FCTKSDPPICS
HELM: PEPTIDE1{F.C.T.K.S.D.P.P.I.C.S.[dP].D}$PEPTIDE1,PEPTIDE1,2:R3-10:R3|PEPTIDE1,PEPTIDE1,1:R1-13:R2$$$V2.0
SMILES: CC[C@H](C)[C@@H]1NC(=O)[C@@H]2CCCN2C(=O)[C@@H]2CCCN2C(=O)[C@H](CC(=O)O)NC(=O)[C@H](CO)NC(=O)[C@H](CCCCN)NC(=O)[C@H]([C@@H](C)O)NC(=O)[C@@H]2CSSC[C@H](NC1=O)C(=O)N[C@@H](CO)C(=O)N1CCC[C@@H]1C(=O)N[C@@H](CC(=O)O)C(=O)N[C@@H](Cc1ccccc1)C(=O)N2
B2: Example 5 (peptide)
peptide: FCTKSDPPICY
HELM: PEPTIDE1{F.C.T.K.S.D.P.P.I.C.Y.[dP].P}$PEPTIDE1,PEPTIDE1,2:R3-10:R3|PEPTIDE1,PEPTIDE1,1:R1-13:R2$$$V2.0
SMILES: CC[C@H](C)[C@@H]1NC(=O)[C@@H]2CCCN2C(=O)[C@@H]2CCCN2C(=O)[C@H](CC(=O)O)NC(=O)[C@H](CO)NC(=O)[C@H](CCCCN)NC(=O)[C@H]([C@@H](C)O)NC(=O)[C@@H]2CSSC[C@H](NC1=O)C(=O)N[C@@H](Cc1ccc(O)cc1)C(=O)N1CCC[C@@H]1C(=O)N1CCC[C@H]1C(=O)N[C@@H](Cc1ccccc1)C(=O)N2
B3: Example 46 (peptide)
peptide: FCTKSDPPICS
HELM: PEPTIDE1{F.C.T.K.S.D.P.P.I.C.S.[dD].P}$PEPTIDE1,PEPTIDE1,2:R3-10:R3|PEPTIDE1,PEPTIDE1,1:R1-13:R2$$$V2.0
SMILES: CC[C@H](C)[C@@H]1NC(=O)[C@@H]2CCCN2C(=O)[C@@H]2CCCN2C(=O)[C@H](CC(=O)O)NC(=O)[C@H](CO)NC(=O)[C@H](CCCCN)NC(=O)[C@H]([C@@H](C)O)NC(=O)[C@@H]2CSSC[C@H](NC1=O)C(=O)N[C@@H](CO)C(=O)N[C@H](CC(=O)O)C(=O)N1CCC[C@H]1C(=O)N[C@@H](Cc1ccccc1)C(=O)N2
B4: Example 4 (peptide)
peptide: FCTKSDPPICS
HELM: PEPTIDE1{F.C.T.K.S.D.P.P.I.C.S.[dP].P}$PEPTIDE1,PEPTIDE1,2:R3-10:R3|PEPTIDE1,PEPTIDE1,1:R1-13:R2$$$V2.0
SMILES: CC[C@H](C)[C@@H]1NC(=O)[C@@H]2CCCN2C(=O)[C@@H]2CCCN2C(=O)[C@H](CC(=O)O)NC(=O)[C@H](CO)NC(=O)[C@H](CCCCN)NC(=O)[C@H]([C@@H](C)O)NC(=O)[C@@H]2CSSC[C@H](NC1=O)C(=O)N[C@@H](CO)C(=O)N1CCC[C@@H]1C(=O)N1CCC[C@H]1C(=O)N[C@@H](Cc1ccccc1)C(=O)N2
B5: Example 63 (peptide)
peptide: XCTKSDPPXCY
HELM: PEPTIDE1{[O=C([C@@H](N[*:1])C1CCCCC1)[*:2]].C.T.K.S.D.P.P.[Nle].C.Y.[dP].P}$PEPTIDE1,PEPTIDE1,2:R3-10:R3|PEPTIDE1,PEPTIDE1,1:R1-13:R2$$$V2.0
SMILES: CCCC[C@@H]1NC(=O)[C@@H]2CCCN2C(=O)[C@@H]2CCCN2C(=O)[C@H](CC(=O)O)NC(=O)[C@H](CO)NC(=O)[C@H](CCCCN)NC(=O)[C@H]([C@@H](C)O)NC(=O)[C@@H]2CSSC[C@H](NC1=O)C(=O)N[C@@H](Cc1ccc(O)cc1)C(=O)N1CCC[C@@H]1C(=O)N1CCC[C@H]1C(=O)N[C@@H](C1CCCCC1)C(=O)N2
B6: Example 68 (peptide)
peptide: FCTKSDPPICS
HELM: PEPTIDE1{F.C.T.K.S.D.P.P.I.C.S.[dA].D}$PEPTIDE1,PEPTIDE1,2:R3-10:R3|PEPTIDE1,PEPTIDE1,1:R1-13:R2$$$V2.0
SMILES: CC[C@H](C)[C@@H]1NC(=O)[C@@H]2CCCN2C(=O)[C@@H]2CCCN2C(=O)[C@H](CC(=O)O)NC(=O)[C@H](CO)NC(=O)[C@H](CCCCN)NC(=O)[C@H]([C@@H](C)O)NC(=O)[C@@H]2CSSC[C@H](NC1=O)C(=O)N[C@@H](CO)C(=O)N[C@H](C)C(=O)N[C@@H](CC(=O)O)C(=O)N[C@@H](Cc1ccccc1)C(=O)N2
B7: Example 64 (peptide)
peptide: FCTKSDPPICS
HELM: PEPTIDE1{F.C.T.K.S.D.P.P.I.C.S.[dP].E}$PEPTIDE1,PEPTIDE1,2:R3-10:R3|PEPTIDE1,PEPTIDE1,1:R1-13:R2$$$V2.0
SMILES: CC[C@H](C)[C@@H]1NC(=O)[C@@H]2CCCN2C(=O)[C@@H]2CCCN2C(=O)[C@H](CC(=O)O)NC(=O)[C@H](CO)NC(=O)[C@H](CCCCN)NC(=O)[C@H]([C@@H](C)O)NC(=O)[C@@H]2CSSC[C@H](NC1=O)C(=O)N[C@@H](CO)C(=O)N1CCC[C@@H]1C(=O)N[C@@H](CCC(=O)O)C(=O)N[C@@H](Cc1ccccc1)C(=O)N2
B8: Example 75 (peptide)
peptide: RCTKSDPPICF
HELM: PEPTIDE1{R.C.T.K.S.D.P.P.I.C.F.[dP].P}$PEPTIDE1,PEPTIDE1,2:R3-10:R3|PEPTIDE1,PEPTIDE1,1:R1-13:R2$$$V2.0
SMILES: CC[C@H](C)[C@@H]1NC(=O)[C@@H]2CCCN2C(=O)[C@@H]2CCCN2C(=O)[C@H](CC(=O)O)NC(=O)[C@H](CO)NC(=O)[C@H](CCCCN)NC(=O)[C@H]([C@@H](C)O)NC(=O)[C@@H]2CSSC[C@H](NC1=O)C(=O)N[C@@H](Cc1ccccc1)C(=O)N1CCC[C@@H]1C(=O)N1CCC[C@H]1C(=O)N[C@@H](CCCNC(=N)N)C(=O)N2

target: T1, Elastase from human neutrophils; assay: cell-based or functional assay

| Binder | IC50 [nmol] | % inhibition at 100 µM [%] |
| --- | --- | --- |
| B1 | > 10000 | – |
| B2 | > 100000 | – |
| B3 | > 100000 | – |
| B4 | > 100000 | – |
| B5 | > 100000 | – |
| B6 | > 100000 | – |
| B7 | > 100000 | – |
| B8 | – | 69.1 |

target: T2, CathepsinG, from human neutrophils; assay: cell-based or functional assay

| Binder | IC50 [nmol] |
| --- | --- |
| B1 | 64 |
| B2 | 56 |
| B3 | 87.5 |
| B4 | 91 |
| B5 | 41 |
| B6 | 59 |
| B7 | 45 |
| B8 | 86 |

target: Tryptase, from human lung (human, UniProt Q15661 31-275, limits assumed); assay: cell-based or functional assay
Sequence (Q15661 31-275 limits assumed): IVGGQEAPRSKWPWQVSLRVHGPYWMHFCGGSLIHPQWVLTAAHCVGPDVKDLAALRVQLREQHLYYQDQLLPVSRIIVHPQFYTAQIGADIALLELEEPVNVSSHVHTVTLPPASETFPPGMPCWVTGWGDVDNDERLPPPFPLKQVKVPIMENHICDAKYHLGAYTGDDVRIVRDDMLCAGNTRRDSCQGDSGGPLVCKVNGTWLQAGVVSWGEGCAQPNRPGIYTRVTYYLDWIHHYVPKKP

| Binder | % inhibition at 100 µM [%] |
| --- | --- |
| B1 | 0 |
| B2 | 74 |
| B3 | 44.1 |
| B4 | 0 |
| B5 | 50 |
| B6 | 21.3 |
| B7 | 0 |
| B8 | 0 |

target: Thrombin, from Human Plasma, high activity (human, UniProt P00734 328-622); assay: cell-based or functional assay

| Binder | % inhibition at 100 µM [%] |
| --- | --- |
| B1 | 0 |
| B2 | 0.5 |
| B3 | 6.9 |
| B4 | 0 |
| B5 | 1 |
| B6 | 5.4 |
| B7 | 2.3 |
| B8 | 1.1 |

target: Urokinase from human urine (human, UniProt P00749 21-431, limits assumed); assay: cell-based or functional assay

| Binder | % inhibition at 100 µM [%] |
| --- | --- |
| B1 | 6.3 |
| B2 | 5.7 |
| B3 | 5.8 |
| B4 | 5.4 |
| B5 | 0 |
| B6 | 4.6 |
| B7 | 3 |
| B8 | 5.7 |

target: T3, Chymase, from human skin; assay: cell-based or functional assay

| Binder | % inhibition at 100 µM [%] |
| --- | --- |
| B1 | 8.2 |
| B2 | 0 |
| B3 | 10.2 |
| B4 | 0 |
| B5 | 7 |
| B6 | 0 |
| B7 | 0 |
| B8 | 0 |

target: Trypsin, Iodination grade, from human pancreas (human, UniProt P07477 24-247); assay: cell-based or functional assay

| Binder | % inhibition at 100 µM [%] |
| --- | --- |
| B1 | 87 |
| B2 | 92 |
| B3 | 95 |
| B4 | 96 |
| B5 | 96 |
| B6 | 84.2 |
| B7 | 87 |
| B8 | 92.6 |

target: Chymotrypsin, from human pancreas (human, UniProt P17538 19-263); assay: cell-based or functional assay
Sequence (P17538 19-263): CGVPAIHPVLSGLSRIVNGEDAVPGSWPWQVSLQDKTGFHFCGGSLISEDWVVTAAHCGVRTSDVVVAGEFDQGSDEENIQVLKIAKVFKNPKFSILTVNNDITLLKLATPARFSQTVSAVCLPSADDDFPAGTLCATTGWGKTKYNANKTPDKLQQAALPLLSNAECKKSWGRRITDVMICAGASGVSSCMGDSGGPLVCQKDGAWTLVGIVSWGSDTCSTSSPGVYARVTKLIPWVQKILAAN

| Binder | % inhibition at 100 µM [%] |
| --- | --- |
| B1 | 1 |
| B2 | 3 |
| B3 | 0 |
| B4 | 1.8 |
| B5 | 11 |
| B6 | 4.3 |
| B7 | 0 |
| B8 | 7.8 |

target: Coagulation Factor Xa, from human plasma (human, UniProt P00742 41-488, limits assumed); assay: cell-based or functional assay
Sequence (P00742 41-488 limits assumed): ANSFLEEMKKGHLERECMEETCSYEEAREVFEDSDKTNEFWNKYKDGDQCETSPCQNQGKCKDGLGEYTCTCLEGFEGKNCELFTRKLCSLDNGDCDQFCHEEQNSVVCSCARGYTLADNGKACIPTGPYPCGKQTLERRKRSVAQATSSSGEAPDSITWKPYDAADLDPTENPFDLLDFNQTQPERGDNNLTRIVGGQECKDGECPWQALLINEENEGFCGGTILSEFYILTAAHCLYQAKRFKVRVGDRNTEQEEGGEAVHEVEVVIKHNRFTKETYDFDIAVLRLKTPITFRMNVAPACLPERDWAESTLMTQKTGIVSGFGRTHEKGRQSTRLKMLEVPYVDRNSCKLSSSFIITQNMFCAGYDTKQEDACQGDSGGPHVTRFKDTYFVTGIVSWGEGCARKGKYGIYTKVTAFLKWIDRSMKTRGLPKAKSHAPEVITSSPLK

| Binder | % inhibition at 100 µM [%] |
| --- | --- |
| B1 | 9.3 |
| B2 | 0.2 |
| B3 | 12.2 |
| B4 | 2.4 |
| B5 | 0 |
| B6 | 8.6 |
| B7 | 0 |
| B8 | 5.7 |
